Assay results taken from patent US20240239887A1 (SUZHOU KANOVA BIOPHARMACEUTICAL, published 2024).

T1: TIGIT (SPR analyte) (human, UniProt Q495A1 22-141, limits assumed)
T1 construct: the text says only 'TIGIT was used as the analyte'; The construct is not described; also called human TIGIT
T1 sequence (looked up): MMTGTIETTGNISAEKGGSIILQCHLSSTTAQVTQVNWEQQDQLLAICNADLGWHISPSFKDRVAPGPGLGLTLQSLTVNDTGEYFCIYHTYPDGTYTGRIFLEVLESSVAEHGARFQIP

T2: human TIGIT/mIgG2aFc recombinant protein (human, UniProt Q495A1 22-141)
T2 construct: range 22-141; In-house production; also called TIGIT/mIgG2aFc protein; human TIGIT/mIgG2aFc protein; not shown: mouse IgG2a Fc
T2 sequence (looked up): T1 sequence (looked up)

T3: full-length human TIGIT on Jurkat/TIGIT cells (human, UniProt Q495A1 22-244)
T3 construct: whole, on cells; also called Human TIGIT-expressing Jurkat cells; TIGIT expressed on cell surface
T3 sequence (looked up): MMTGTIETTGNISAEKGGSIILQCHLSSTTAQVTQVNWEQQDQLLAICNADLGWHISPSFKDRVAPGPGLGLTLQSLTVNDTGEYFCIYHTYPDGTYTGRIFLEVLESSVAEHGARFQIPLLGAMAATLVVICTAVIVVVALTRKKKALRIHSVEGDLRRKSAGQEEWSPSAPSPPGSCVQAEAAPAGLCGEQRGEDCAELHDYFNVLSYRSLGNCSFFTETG

B1: Chimeric VH+VL (Parental mouse VH+VL combined with human Fc) (antibody, human IgG1, kappa, V domains shown)
VH: QVQLQQSGAELMKPGASVKISCKATGYTFSRYWIEWVKQRPGHGLEWIGEIFPGSGGTNYNEKFKGKATFTADTSSNTAYMQLTSLTSEDSAVYYCARHLGALDYWGQGTSVTVSS
VL: QIVLTQSPAIMSASPGEKVTISCSASSSVSYIHWYQQKAGSSPKPWIYRTSNLASGVPARLSGSGSGTSYFLTISSMEAEDAATYYCQQYHSNPWTFGGGTKLEIKR
notes: also called chimeric antibody
B2: VH4 + VL2 (antibody, human IgG1, kappa, V domains shown)
VH: EVQLVQSGAEVKKPGESLKISCKGSGYTFSRYWIEWVRQMPGKGLEWMGEIFPGSGGTNYNEKFKGQVTISADKSISTAYLQWSSLKASDTAMYYCARHLGALDYWGQGTLVTVSS
VL: DIQMTQSPSSLSASVGDRVTITCSASSSVSYIHWYQQKPGKAPKLLIYRTSNLASGVPSRFSGSGSGTDFTLTISSLQPEDFATYYCQQYHSNPWTFGGGTKLEIKR
notes: Humanized full-length IgG; also called HC3 + LC1
B3: VH3 + VL3 (antibody, human IgG1, kappa, V domains shown)
VH: QVQLVQSGAEVKKPGASVKVSCKASGYTFSRYWIEWVRQAPGQGLEWMGEIFPGSGGTNYNEKFKGRVTMTRDTSTSTVYMELSSLRSEDTAVYYCARHLGALDYWGQGTLVTVSS
VL: EIVLTQSPGTLSLSPGERATLSCSASSSVSYIHWYQQKPGQAPRLLIYRTSNLASGIPDRFSGSGSGTDFTLTISRLEPEDFAVYYCQQYHSNPWTFGGGTKLEIKR
notes: Humanized full-length IgG; also called HC2 + LC2
B4: anti-TIGIT antibody VH2+VL4 (antibody, human IgG1, kappa)
heavy: not shown
light: DIVMTQSPDSLAVSLGERATINCSASSSVSYIHWYQQKPGQPPKLLIYRTSNLASGVPDRFSGSGSGTDFTLTISSLQAEDVAVYYCQQYHSNPWTFGGGTKLEIKRTVAAPSVFIFPPSDEQLKSGTASVVCLLNNFYPREAKVQWKVDNALQSGNSQESVTEQDSKDSTYSLSSTLTLSKADYEKHKVYACEVTHQGLSSPVTKSFNRGEC
notes: Biotin-labeled in the cynomolgus TIGIT flow cytometry assay; also called HC1 + LC3
B5: VH3 + VL4 (antibody, human IgG1, kappa, V domains shown)
VH: B3 VH
VL: DIVMTQSPDSLAVSLGERATINCSASSSVSYIHWYQQKPGQPPKLLIYRTSNLASGVPDRFSGSGSGTDFTLTISSLQAEDVAVYYCQQYHSNPWTFGGGTKLEIKR
notes: Humanized full-length IgG; also called HC2 + LC3

Biological target: T1, TIGIT (SPR analyte)
Assay: SPR (Biacore 8K), antibody captured through Fc, TIGIT as analyte
Procedure: TIGIT was used as the analyte. The surface was regenerated before the injection of another antibody. The process was repeated until all antibodies are analyzed. The off-rates of antibodies were obtained from fitting the experimental data locally to 1:1 interaction model using the Biacore 8K evaluation software. The antibodies were ranked by their dissociation rate constants (off-rates, kd) (Table 1). Based on the ranking result, the top 4 clones were selected.

Binder	Kd	koff	kon
B1	0.179 nM	5.56e-05 s⁻¹	310000 M⁻¹ s⁻¹
B2	0.122 nM	4.97e-05 s⁻¹	407000 M⁻¹ s⁻¹
B3	0.111 nM	3.25e-05 s⁻¹	294000 M⁻¹ s⁻¹
B4	0.101 nM	4.47e-05 s⁻¹	444000 M⁻¹ s⁻¹
B5	0.11 nM	4.38e-05 s⁻¹	396000 M⁻¹ s⁻¹

Biological target: T2, human TIGIT/mIgG2aFc recombinant protein
Assay: ELISA, plate coated with human TIGIT/mIgG2aFc, anti-human IgG-HRP detection
Procedure: MaxiSorp 96-well plates (NUNC #449824) were coated with 2 μg/mL human TIGIT/mIgG2aFc protein (in-house production, the method is well known in the art) in 1× PBS (50 μL/well). Plates were incubated at 4° C. overnight. Coating solution was removed and plates were washed once with 200 μL/well PBST (1× PBS containing 0.05% tween-20). Then 200 μL/well blocking buffer (1× PBS with 0.05% tween-20, 3% BSA) was added and incubated at room temperature for 1 hour. Blocking buffer was removed and plates were washed three times with 200 μL/well PBST. Antibody VH2+VL4 (produced in Example 2) and human IgG1 isotype control (hIgG1, Sigma #I5154-1MG) was diluted by 1× PBS and added to plates (50 μL/well). Plates were incubated at room temperature for 2 hours. Antibodies in the wells were removed and plates were washed three times with 200 μL/well PBST. Goat anti-human IgG(H&L)-HRP secondary antibody (Jackson Immuno Research #109-035-088) was diluted 1:5000 in 1× PBS and added to each well (50 μL/well). Plates were incubated at room temperature for 1 hour. Secondary antibody was removed and plates were washed five times with 200 μL/well PBST. 50 μL/well TMB (eBioscience #85-00-4201-56) was added and plates were incubated at room temperature for several minutes. Then 50 μL/well 2N H₂SO₄ was added to stop the reaction. Optical density was measured at 450 nm.

Binder	EC50
B4	0.47 nM

Biological target: T3, full-length human TIGIT on Jurkat/TIGIT …
Assay: flow cytometry on Jurkat/TIGIT cells, Alexa Fluor 594 goat anti-human IgG secondary antibody, readout % of bound cells
Procedure: Jurkat/TIGIT cells were incubated with different concentrations of anti-TIGIT antibody VH2+VL4 or human IgG1 isotype control at 4° C. for 30 minutes. Then cells were washed once by FACS buffer (PBS with 2% FBS) and incubated with Alexa Fluor 594 AffiniPure Goat Anti-human IgG secondary antibody (Jackson ImmunoResearch #109-585-088) at 4° C. for 30 minutes. After washed once by FACS buffer, cells were resuspended in 200 μL FACS buffer. The cells after staining were analyzed by BD LSRFortessa Flow Cytometer.

Binder	EC50
B4	1.13 nM

Biological target: T4, full-length cynomolgus TIGIT on 293T cells (cynomolgus, UniProt A0A7N9I9V4 89-312)
T4 construct: whole, on cells; also called cynomolgus-expressing 293T cells
Assay: flow cytometry on 293T cells transfected with cynomolgus TIGIT, biotin-labeled antibody detected with Brilliant Violet 421 streptavidin, readout % of bound cells
Procedure: A DNA encoding full-length cynomolgus TIGIT (NCBI Accession No: XP_015300911.1) was cloned into pcDNA3.4 vector (Invitrogen #A14697) and transfected into 293T cells (Cell Bank, Chinese Academy of Sciences, #SCSP-502) by using Polyethylenimine Max reagent (Polysciences #24765-2). 48 hours post-transfection, cynomolgus-expressing 293T cells were incubated with different concentrations of biotin-labeled (Thermo #21338) anti-TIGIT antibody VH2+VL4 at 4° C. for 20 minutes. Then cells were washed once by FACS buffer (PBS with 2% FBS) and incubated with Brilliant Violet 421 Streptavidin (Biolegend #405225) at 4° C. for 30 minutes. After washed once by FACS buffer, cells were resuspended in 200 μL FACS buffer. The cells after staining were analyzed by BD FACSCelesta Flow Cytometer.

T4 sequence (A0A7N9I9V4 entry or part of it): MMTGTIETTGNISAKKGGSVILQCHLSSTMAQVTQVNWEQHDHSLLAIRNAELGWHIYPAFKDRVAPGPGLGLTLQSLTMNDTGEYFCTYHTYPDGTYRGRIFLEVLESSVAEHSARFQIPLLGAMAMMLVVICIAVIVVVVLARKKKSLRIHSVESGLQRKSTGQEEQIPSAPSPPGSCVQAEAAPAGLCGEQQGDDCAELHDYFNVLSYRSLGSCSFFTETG

Binder	EC50
B4	0.02 nM
